Measured values reported in patent US6458943 (INSTITUT NATIONAL DE LA SANTE ET DE LA RECHERCHE MEDICALE, dated 2002).

How the values were obtained:
[1] = target: T1, eukaryotic initiation factor 4AII library interactor (pAD-GAL4 construct, DNA Database of Japan accession no. … (human, UniProt P04386 761-881; Q14240 1-407, limits assumed); assay: yeast two-hybrid, retransfection of Hf7c
T1 construct: False positive of the Hf7c screen
Experimental: (§1) Transformants were plated onto solid SD/-His-Trp-Leu (incorporating 35 mM 3-AT in the case of Y190 transformants) and incubated for up to 14 days at 30° C. After 3 initial days of growth, plates were inspected daily, and His+ colonies were transferred to SD/-His-Trp-Leu +0.07 M potassium phosphate pH 7+40 µg/ml X-gal plates which incorporated 35 mM 3-AT in the case of Y190 co-transformants. Colonies which remained His+, and in the case of Y190 co-transformants, were also lacZ+, were re-streaked onto fresh plates to check that all colonies were of uniform phenotype. After 6 days incubation at 30° C., yeast colonies were directly harvested, and plasmid DNA was isolated and used to transfect XL1 Blue. Mini-preparations of plasmid DNA were performed for at least 5 XL1 Blue colonies per transfection, with the results of restriction digests differentiating potential interactors from bait plasmids. […] Phenotypes of resulting co-transfectants were assayed quantitatively and/or qualitatively as described above.

[2] = target: T2, RING10 proteasome subunit library interactor (pAD-GAL4 construct, GenBank accession no. X62598) (human, UniProt P04386 761-881; P28062 73-276, limits assumed); assay: yeast two-hybrid, retransfection of Hf7c
T2 construct: False positive of the Hf7c screen
T2 sequence (looked up): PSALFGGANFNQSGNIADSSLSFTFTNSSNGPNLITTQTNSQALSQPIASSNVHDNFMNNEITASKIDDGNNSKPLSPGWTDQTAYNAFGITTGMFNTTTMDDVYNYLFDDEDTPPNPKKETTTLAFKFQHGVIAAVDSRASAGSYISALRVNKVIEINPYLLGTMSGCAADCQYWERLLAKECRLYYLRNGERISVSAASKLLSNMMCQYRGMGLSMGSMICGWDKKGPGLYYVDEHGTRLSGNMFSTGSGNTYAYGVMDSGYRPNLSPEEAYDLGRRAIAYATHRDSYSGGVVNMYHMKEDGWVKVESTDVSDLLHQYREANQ
Experimental: as §1

[3] = target: T3, histidyl t-RNA synthetase library interactor (pAD-GAL4 construct, EBML accession no. Z 11518) (human, UniProt P04386 761-881; P12081 2-509, limits assumed); assay: yeast two-hybrid, retransfection of Hf7c
T3 construct: False positive of the Hf7c screen
T3 sequence (looked up): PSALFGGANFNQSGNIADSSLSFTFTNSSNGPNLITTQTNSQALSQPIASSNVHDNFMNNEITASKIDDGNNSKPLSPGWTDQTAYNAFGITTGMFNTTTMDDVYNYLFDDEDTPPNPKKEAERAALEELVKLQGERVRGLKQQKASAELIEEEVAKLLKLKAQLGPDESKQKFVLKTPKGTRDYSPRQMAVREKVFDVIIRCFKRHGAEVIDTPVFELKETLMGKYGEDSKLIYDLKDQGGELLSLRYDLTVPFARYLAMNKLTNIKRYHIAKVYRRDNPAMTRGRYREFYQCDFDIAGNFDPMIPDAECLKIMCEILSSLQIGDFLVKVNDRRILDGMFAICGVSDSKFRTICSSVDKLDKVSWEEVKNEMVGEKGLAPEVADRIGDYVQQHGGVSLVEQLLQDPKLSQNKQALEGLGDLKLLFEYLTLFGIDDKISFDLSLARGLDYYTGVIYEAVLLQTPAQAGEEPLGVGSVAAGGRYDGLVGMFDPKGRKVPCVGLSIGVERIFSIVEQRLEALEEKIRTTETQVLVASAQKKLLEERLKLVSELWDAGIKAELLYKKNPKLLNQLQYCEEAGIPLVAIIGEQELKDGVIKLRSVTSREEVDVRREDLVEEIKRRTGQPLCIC
Experimental: as §1

[4] = target: T4, hD53 interactor (GAL4 activation domain fusion, pACT2hD53) (human, UniProt P04386 768-881 (Saccharomyces cerevisiae entry)); assay: yeast two-hybrid in Y190, β-galactosidase assay
T4 construct: range 768-881
T4 sequence: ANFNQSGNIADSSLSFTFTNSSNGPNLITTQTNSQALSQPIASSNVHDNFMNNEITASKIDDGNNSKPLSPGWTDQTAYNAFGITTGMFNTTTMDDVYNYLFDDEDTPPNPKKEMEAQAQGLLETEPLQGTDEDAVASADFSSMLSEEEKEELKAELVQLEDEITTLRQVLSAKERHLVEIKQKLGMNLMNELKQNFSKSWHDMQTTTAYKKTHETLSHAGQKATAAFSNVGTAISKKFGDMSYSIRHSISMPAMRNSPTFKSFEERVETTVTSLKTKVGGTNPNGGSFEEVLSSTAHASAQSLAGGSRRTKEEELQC
Experimental: Interactions between baits and interactors were assessed by qualitatively and/or quantitatively determining HIS3 and lacZ reporter gene activity in Y190 co-transfectants. Reporter gene activities were assessed qualitatively by observing the growth and color development of Y190 co-transfectants on solid SD media lacking His, Trp and Leu (SD/-His-Trp-Leu), and incorporating 0.07 M potassium phosphate pH 7, 35 mM 3-AT, and 40 µg/ml X-gal. For quantitative assessment of interactions, β-galactosidase activity was measured using the substrate o-nitrophenyl β-D-galactopyranoside (ONPG) in liquid cultures (SD/-His-Trp-Leu +35 mM 3-AT) of Y190 co-transfectants.

Measured: binding result

B1: mD52(95-185) bait (GAL4 DNA-binding domain fusion, pAS2-1mD52(95-185)) (other)
chain: MKLLSSIEQACDICRLKKLKCSKEKPKCAKCLKNNWECRYSPKTKRSPLTRAHLTEVESRLERLEQLFLLIFPREDLDMILKMDSLQDIKALLTGLFVQDNVNKDAVTDRLASVETDMPLTLRQHRISATSSSEESSNKGQRQLTVSAYKKTSETLSQAGQKASAAFSSVGSVITKKLEDVKNSPTFKSFEEKVENLKSKVGGAKPAGGDFGEVLNSTANATSTMTTEPPPEQMTESP
notes: also called C-terminal half of mD52
no binding: all assays above
